Measured values from the nanobody polyreactivity screen of Harvey et al. (2022).

Experiment: yeast display, Sf9 membrane polyspecificity reagent, FACS + sequencing; frameworks hold sequencing errors
Outline: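 In a synthetic yeast display library (Saccharomyces cerevisiae BJ5465), nanobody expression was induced with galactose for 36–48 hours. FACS gates were set low and high (top ~1%) using anti-HA fluorescence for expression and streptavidin fluorescence for binding of the Sf9 membrane reagent. Each polyreactivity label is drawn from the gate of origin.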
With “QVQLVEKGGGLVQAGGSLRLSCAASGSTFRNNAMGRYREAPGKERELVAAIPYSGDSTSYADSVKGRFTISRDNAKNTVYLQMNSLKPEDTAVYYCNAAIDGIYLGSYTAYGYDSWGQGTQVTVSS” the “polyreactivity (PSR sort gate)” value was “low polyreactivity”. In the case of “QVQLVEKGGGLVQAGGSLRLSCAASGYIFRFYTKRWYRQAPGKERELVASITRSGGSTYYADSVKGRFTFSRENAKNTVYLQKNSLKPEDTAVYYCNARKTVGMDYWGQGTQVTVSS”, the “polyreactivity (PSR sort gate)” value is reported as “low polyreactivity”. In the case of “QVQLVESAAGLVQAGGSLRLSCAASGIIFPRNVMGWYRQAPGKERELVAAITYSGGRTYYADSVKGRFTISRDNAKNTVYLQMNSLKPEDTAVYYCNADFRSQPYDYWGQGTQVTVSS”, the “polyreactivity (PSR sort gate)” value is reported as “low polyreactivity”. For “QVQLVESAAGLVQAGGSLRLSCADSGSTIYRYAMGWYRQAPGKERELVAAISTTGGSTFYADSVKGRFTISRDNAKNTVYLQMNSLKPEDTAVYYCNAYYRGTYDYWGQGTQVTVSS”, the “polyreactivity (PSR sort gate)” value was “high polyreactivity”. In the case of “QVQLVESAGALVQAGGSLRLSCAASGRIFSVYAMGWYRQAPGKERELVATITYNGGSTYYADSVKGRFTISRDNAKNTVYLQMNSLKPEDTAVYYCAADWTYVRFDYWGQGTQVTVSS”, the “polyreactivity (PSR sort gate)” value is reported as “low polyreactivity”. With “QVQLVESAGCLVQAGGSLRLSCDASGIIFKVYAMGWYSQAPGKEREWVAAISWSGSSTYYADTVKGRFTISRDKAKNTVYLQMNSLKPEDTAVYYCAAYSVARSMGYWGQGTQVTVSS” the “polyreactivity (PSR sort gate)” value was “high polyreactivity”. In the case of “QVQLVESAGGIVQAGGSLRLSCAASGFIFVRNAIGWYRQAPGKEREFVAAINSSGGRTYYADSVKGRFTISRDNAKNTVYLQMNSLKPEDPAVYYCAARPQPKKFYYWGLGTQVTVSS”, the “polyreactivity (PSR sort gate)” value is reported as “high polyreactivity”. With “QVQLVESAGGLVQAAGSLRLSCAASGFVFYSYAMGWYRQAPGKERELVAVISRSGGSTYYADSVKGRFTISRDNAKNTVYFQMNSLKPEDTAVYYCAAKYHGQERGAPPFYYWGQGTQVTVSS” the “polyreactivity (PSR sort gate)” value was “high polyreactivity”. For “QVQLVESAGGLVQAAGSLRLSCDASGRIFWYNAMGWYRQEPGKERELVAAISSGGSTSYADSVKGRFTISRDNAKNTVYLQMNSLKPEDTAVYYCDKDDERKQGQYPPYDSWGQGTQVTVSS”, the “polyreactivity (PSR sort gate)” value was “low polyreactivity”. In the case of “QVQLVESAGGLVQAGASLRLSCAASGIIFTRYAMGWYRQPPGKESELVAAITRSSGSTYYADSVKGRFTISRDNAKNTVYLQMNSLKPEDSAVYYCAADWVSRYQARPYFSAFNYWGQGTQVTVSS”, the “polyreactivity (PSR sort gate)” value is reported as “high polyreactivity”. For “QVQLVESAGGLVQAGASLRLSCAASGSIFGGYAMGWYRQAPGTERELVAAISSGDSTYYADSVKGRFTISRDNAKNTVYLQMNSLKPEDTAVYYCARRYTRSYYKLGKLNYWGQGTQVTVSS”, the “polyreactivity (PSR sort gate)” value was “high polyreactivity”. For “QVQLVESAGGLVQAGGILRLRCAASGFTFTSNAMGWYRQAPGKEREFVADISNIGGDTTYADSVKGRFTISRDNAKNTVYLQMNSLNPEDTAVYYCNADFAFIENDYCGQGTQVTVSS”, the “polyreactivity (PSR sort gate)” value was “low polyreactivity”. For “QVQLVESAGGLVQAGGILRLSCHASGITFTSYVMGWYRQSPGKERELVAAIRWSGGRTYYADSVKGRFTISRDNAKNTVYLQMNSLKPEDTAVYYCNRVTRSHVDYWGQGTQVTVSS”, the “polyreactivity (PSR sort gate)” value was “high polyreactivity”. In the case of “QVQLVESAGGLVQAGGSLRLICAASGSTFTYYPMGWYRQAPGKERELVAAISGSGGRTYYADSVKGLFTISRDNAKNTVYLQMNSLKPEDTAVYYCNARATSLVPGRPKQYTYYYWGQGTQVTVSS”, the “polyreactivity (PSR sort gate)” value is reported as “high polyreactivity”. In the case of “QVQLVESAGGLVQAGGSLRLSCAASGFIFARYAMGWYRQAPGKERELVAAISSSGGITYYADSVKGRFTISRDNAKNTVYFQMNSLKPEDTAVYYCNAESYYFYWPVYSYDYWGQGTQVTVSS”, the “polyreactivity (PSR sort gate)” value is reported as “low polyreactivity”. For “QVQLVESAGGLVQAGGSLRLSCAASGFSFYYNTMGWYRQAPGTEWELVASITWSGDTTYYADSVKGRFTISRDNAKNTVYLQMNSLKPEDTAVYYCAAVPYYPYRRYDYWGQGTQVTVAS”, the “polyreactivity (PSR sort gate)” value was “low polyreactivity”. With “QVQLVESAGGLVQAGGSLRLSCAASGFTFDYYAMGWYRQAPGKERELVASITFIGGNTNYADSVKGRFTISRDNAKTTVYLQMNSLKPEDTAVYYCAADFPWDYRYWFEYWGQGTQVTVSS” the “polyreactivity (PSR sort gate)” value was “low polyreactivity”. With “QVQLVESAGGLVQAGGSLRLSCAASGFTFYRNAIGWYRQEPGTERELVAGITRSGGSTYYADSVKGRLTISRDNAKNTVYLQMNSLKPEDTAVYYCNKAFGGDKYSGTYDYWGQGTQVTVSS” the “polyreactivity (PSR sort gate)” value was “high polyreactivity”. With “QVQLVESAGGLVQAGGSLRLSCAASGFTFYTYGMGWYRQAPGKERALVAAITSGVSTNYADSVKGRFTISRDNAKNTVYLQMNSLKPEDTAVYYCNKVGRPAYRWYDYWGQDTQVTVSS” the “polyreactivity (PSR sort gate)” value was “low polyreactivity”. In the case of “QVQLVESAGGLVQAGGSLRLSCAASGIIFGQNAMGWYRQAPGKDRELVAAITISGGSTYYADSVKGRFTISRDNAKNTVYLQMNSLKPEVTAVYYCAARRVTWKDIAGGYRYGYWGQGTQVTVSS”, the “polyreactivity (PSR sort gate)” value is reported as “low polyreactivity”. For “QVQLVESAGGLVQAGGSLRLSCAASGIIFTYYAMGWYRQAPGKERELVAAISSSSGSTYYADSVKGRFTISRDNAKNTVYLQMNSLKPEDTAVYYCAAAFSQYSTSYYYWGQGTQVTVSS”, the “polyreactivity (PSR sort gate)” value was “high polyreactivity”. In the case of “QVQLVESAGGLVQAGGSLRLSCAASGITFEVYAMGWYRQAPGKERELVAAITGSGSRTYYADSVKGRFTISRDNAKNTVYLQMNSLKPEDTAVYYCAVKGFSTRSYREFDYWGQGSQVTVSS”, the “polyreactivity (PSR sort gate)” value is reported as “low polyreactivity”. In the case of “QVQLVESAGGLVQAGGSLRLSCAASGITFRYYAMGWYRQAPGKERELVATITRGGSTYYADSVKGRFTISRDNAKNTVYLQMNSLKPEDTAVYYCAARSYVPSYDYWGQGTQVTVSS”, the “polyreactivity (PSR sort gate)” value is reported as “high polyreactivity”. For “QVQLVESAGGLVQAGGSLRLSCAASGLTFYVNAMGWYRQAPGKERELVAAITWSGGSTHYADSVKGRFTISRDNAKNTVYLQMNSLKPEDTAVYYCARATYQHSYVAYDYWGQGTQVTVSS”, the “polyreactivity (PSR sort gate)” value was “low polyreactivity”. With “QVQLVESAGGLVQAGGSLRLSCAASGNTFRYYAIGWYRQAPGKERELVAVITTRGGSTNYADSVKGRFTISRDNAKNTVYLQMNRLKPEVTAGYYCNTLRHYGPGYDSGGQGTQVTVSS” the “polyreactivity (PSR sort gate)” value was “low polyreactivity”. In the case of “QVQLVESAGGLVQAGGSLRLSCAASGRIFDRYTMGCYRQAPGKERELVAAITFGGGSTYYADSVKGRFTISRDNAKNTVYLQMNSLKPEDTAVYYCAKQRHGKLGHILGYNYWGQGTQVTVSS”, the “polyreactivity (PSR sort gate)” value is reported as “low polyreactivity”. In the case of “QVQLVESAGGLVQAGGSLRLSCAASGRIFGRYAMGWYRQAPGKERELVAAITSGTSTYYADSVKGRFTISRDNAKNTVYLQMNSLKPEDTAVYYCNADYPYYPYRENYWGQGTQVTVSS”, the “polyreactivity (PSR sort gate)” value is reported as “low polyreactivity”. For “QVQLVESAGGLVQAGGSLRLSCAASGRIFPYYAMGWYRQAPGKERELVAAITTDGGGTYYADSVKGRFTISRDNSKNTVYLQMNSMKPEDTAVYYCAVPSYQWYDPENYWGQGTQVTVSS”, the “polyreactivity (PSR sort gate)” value was “low polyreactivity”. In the case of “QVQLVESAGGLVQAGGSLRLSCAASGRISAYAMGWYRQAPGKERELVAAISSRGGRTYYADSVKGRFTISRDNAKNTVYLQMNSLKPDDTAVYYCNALRTWEFDHWGQGTQVTVSS”, the “polyreactivity (PSR sort gate)” value is reported as “high polyreactivity”. In the case of “QVQLVESAGGLVQAGGSLRLSCAASGRNFYRNAMGWYRQAPGKERELVAAISYSGGSTYYADSVKGRFTISRDNAKNTVYLQMNSLKPEDTAVYYFAAAGDRWGNYWGQGTLVTVSS”, the “polyreactivity (PSR sort gate)” value is reported as “high polyreactivity”. With “QVQLVESAGGLVQAGGSLRLSCAASGRTFPGNAMGWYRQAPGKERELVATISSGGTTNYADSVKGRFTISRDNAKTTVYLQMNSLKPEDTAVYYCATDTYHHKADYEYWGQGTQVTVSS” the “polyreactivity (PSR sort gate)” value was “low polyreactivity”. With “QVQLVESAGGLVQAGGSLRLSCAASGSICTKYAMGWYRQAPGKERELVAAISASGGSTYYADSVKGRFTISRDNAKNTVYLQMNSLKPEDTAVYYCAARYWVREDYWGQGTQVTVSS” the “polyreactivity (PSR sort gate)” value was “high polyreactivity”.
